Numbering of substitutions follows the chain as printed.
Legend:
[1] = biological target: the molecule itself; experiment: SEC + SEC-MALS; apo proteins on Superdex 200 Increase 10/300 GL with MALLS detector; 20 mM Tris-HCl pH 7.5, 150 mM KCl, RT; 200 ug FL, 350 ug hStau1 182-577 injected
[2] = biological target: T1, dStau dsRBD3 backbone mutant (Drosophila melanogaster, UniProt P25159 570-786, H606A;K608A;K628E;K629A); experiment: fluorescence anisotropy; FA: 10 nM 5'-FAM RNA, 20 mM Hepes pH 7.5, 150 mM KCl, RT (19-21 C); EMSA: 1 uM RNA, same buffer, 45 min on ice; settings: protein: recombinant; label: 5'-6-FAM; hairpin
T1 sequence: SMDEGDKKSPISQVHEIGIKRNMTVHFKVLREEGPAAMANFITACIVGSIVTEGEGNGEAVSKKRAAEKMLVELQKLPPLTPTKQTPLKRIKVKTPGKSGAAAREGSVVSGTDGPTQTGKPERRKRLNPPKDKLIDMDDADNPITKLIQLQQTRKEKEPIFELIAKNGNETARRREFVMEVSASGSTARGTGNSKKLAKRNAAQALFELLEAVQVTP

dStau S581A Q718A = biological target: T2, dStau S581A Q718A (Drosophila melanogaster, UniProt P25159 570-786, S581A;Q718A); experiment: as above; settings: protein: recombinant; label: 5'-6-FAM; hairpin
T2 sequence: T1 sequence with S12A, A37H, A39K, E59K, A60K, Q149A

[3] = biological target: T3, dStau dsRBD4 backbone mutant (Drosophila melanogaster, UniProt P25159 570-786, R742A;R744A;K764E;K765A;K768A); experiment: as above; settings: protein: recombinant; label: 5'-6-FAM; hairpin
T3 sequence: T1 sequence with A37H, A39K, E59K, A60K, R173A, R175A, K195E, K196A, K199A

hStau1 FL [4] = biological target: T4, hStau1 FL (Homo sapiens, UniProt O95793 1-577); experiment: as above; settings: protein: recombinant, tags: tag removed or His/GST not specified, chain copies: 2
hStau1 FL [5] = biological target: T4, hStau1 FL; experiment: as above; settings: protein: recombinant; tags: tag removed or His/GST not specified; chain copies: 2; label: 5'-6-FAM; blunt
[6] = biological target: hStau1 base-contact mutant (Homo sapiens, UniProt O95793 182-360, S187A;P211A;Q293A); experiment: as above; settings: protein: recombinant, blunt
[7] = biological target: hStau1 deltaC (SSM and dsRBD5 removed) (Homo sapiens, UniProt O95793 1-360); experiment: as above; settings: protein: recombinant; label: 5'-6-FAM on sense strand; blunt, two G-U wobbles
hStau1 dsRBD3-4 = hStau1 dsRBD3-4 (Homo sapiens, UniProt O95793 182-360); experiment: as above; settings: protein: recombinant; tags: untagged; chain copies: 2; label: 5'-6-FAM on sense strand; blunt, two G-U wobbles
GST-hStau1 dsRBD3-4 = GST-hStau1 dsRBD3-4 (Homo sapiens, UniProt O95793 182-360); experiment: as above; settings: protein: recombinant; tags: N-terminal GST; label: 5'-6-FAM on sense strand; blunt, two G-U wobbles
[8] = biological target: hStau1 deltaN (dsRBD2 removed) (Homo sapiens, UniProt O95793 182-577); experiment: as above; settings: protein: recombinant; label: 5'-6-FAM on sense strand; blunt, two G-U wobbles
[9] = biological target: hStau1 dsRBD3 backbone mutant (Homo sapiens, UniProt O95793 182-360, H212A;K214A;K234E;K235A;K238A); experiment: as above; settings: protein: recombinant; label: 5'-6-FAM on sense strand; blunt, two G-U wobbles
[10] = biological target: hStau1 dsRBD4 backbone mutant (Homo sapiens, UniProt O95793 182-360, R315A;R317A;K337E;K338A;K341A); experiment: as above; settings: protein: recombinant; label: 5'-6-FAM on sense strand; blunt, two G-U wobbles
[11] = biological target: hStau1 dsRBD3-4 linker charge mutant (Homo sapiens, UniProt O95793 182-360, K266A;K267E;K268A;K270A); experiment: as above; settings: protein: recombinant; label: 5'-6-FAM on sense strand; blunt, two G-U wobbles
[12] = biological target: hStau1 dsRBD3-4 short linker (Homo sapiens, UniProt O95793 182-253+=GSSGSGSS+284-360, internal_change); experiment: as above; settings: protein: recombinant; label: 5'-6-FAM on sense strand; blunt, two G-U wobbles
[13] = biological target: hStau1 dsRBD3-4 interface mutant (Homo sapiens, UniProt O95793 182-360, N197A;R342A); experiment: fluorescence anisotropy; no effect on affinity vs wt; FA: 10 nM 5'-FAM RNA, 20 mM Hepes pH 7.5, 150 mM KCl, RT (19-21 C); EMSA: 1 uM RNA, same buffer, 45 min on ice; settings: protein: recombinant; label: 5'-6-FAM on sense strand; blunt, two G-U wobbles
GST-hStau1 dsRBD4 = GST-hStau1 dsRBD4 (Homo sapiens, UniProt O95793 284-358); experiment: fluorescence anisotropy; FA: 10 nM 5'-FAM RNA, 20 mM Hepes pH 7.5, 150 mM KCl, RT (19-21 C); EMSA: 1 uM RNA, same buffer, 45 min on ice; settings: protein: recombinant; tags: N-terminal GST; label: 5'-6-FAM on sense strand; blunt, two G-U wobbles
GST-hStau1 dsRBD3 = GST-hStau1 dsRBD3 (Homo sapiens, UniProt O95793 182-255); experiment: as above; settings: protein: recombinant; tags: N-terminal GST; label: 5'-6-FAM on sense strand; blunt, two G-U wobbles

Sequence of hStau1 base-contact mutant (O95793 182-360 S187A/P211A/Q293A): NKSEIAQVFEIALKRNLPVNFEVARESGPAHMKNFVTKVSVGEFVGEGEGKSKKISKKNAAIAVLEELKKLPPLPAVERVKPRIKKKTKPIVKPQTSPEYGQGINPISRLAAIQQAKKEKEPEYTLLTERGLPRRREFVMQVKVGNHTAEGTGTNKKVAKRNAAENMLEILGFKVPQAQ
Sequence of hStau1 dsRBD3-4 interface mutant (O95793 182-360 N197A/R342A): as the sequence (O95793 182-360 S187A/P211A/Q293A) above, with A6S, N16A, A30P, A112Q, R161A counted along it

B1: human Staufen1 full-length (natural protein, UniProt O95793 1-577, looked up)
chain: MSQVQVQVQNPSAALSGSQILNKNQSLLSQPLMSIPSTTSSLPSENAGRPIQNSALPSASITSTSAAAESITPTVELNALCMKLGKKPMYKPVDPYSRMQSTYNYNMRGGAYPPRYFYPFPVPPLLYQVELSVGGQQFNGKGKTRQAAKHDAAAKALRILQNEPLPERLEVNGRESEEENLNKSEISQVFEIALKRNLPVNFEVARESGPPHMKNFVTKVSVGEFVGEGEGKSKKISKKNAAIAVLEELKKLPPLPAVERVKPRIKKKTKPIVKPQTSPEYGQGINPISRLAQIQQAKKEKEPEYTLLTERGLPRRREFVMQVKVGNHTAEGTGTNKKVAKRNAAENMLEILGFKVPQAQPTKPALKSEEKTPIKKPGDGRKVTFFEPGSGDENGTSNKEDEFRMPYLSHQQLPAGILPMVPEVAQAVGVSQGHHTKDFTRAAPNPAKATVTAMIARELLYGGTSPTAETILKNNISSGHVPHGPLTRPSEQLDYLSRVQGFQVEYKDFPKNNKNEFVSLINCSSQPPLISHGIGKDVESCHDMAALNILKLLSELDQQSTEMPRTGNGPMSVCGRC
notes: human Staufen1 (hStau1), GenBank AAD17531.1, codon optimized; full-length protein; the truncation 182-577 implies a length of 577 aa; Constructs carried either an N-terminal GST tag or a His tag; The His tag was removed by TEV; the GST tag was either kept (elution with glutathione) or cleaved by TEV; also called hStau1 FL; hStau1
- stoichiometry N [1]: 2

B2: bcd III (structured_RNA)
RNA: CGCUAUUCGCCUUAGAUGUAUCUGGGUGGCUGCUCCACUAAAGCCCGGGAAUAUGCAACCAGUUACAUUUGAGGCCAUUUGGGCUUAAGCG
- binding signal [2]: ~10 fold reduction vs wt (almost)
- binding signal (dStau S581A Q718A): ~3.5 fold reduction vs wt
- binding signal [3]: < 3 fold reduction vs wt

Binder: UGAGUGCCAGAAGCUGCCUC (ssRNA) [ssARF1 (sense strand)]
- Kd (hStau1 FL [4]; label: 5'-6-FAM, single strand): 96 ± 27 nM

B3: dsAU (dsRNA)
RNA 1: UAUUAUAUAAAUUAUAAAAU
RNA 2: AUUUUAUAAUUUAUAUAAUA
- binding signal (hStau1 FL [5]): ~4 fold reduction vs ARF1 SBS
- binding signal ([6]; label: 5'-6-FAM): ~1.5 fold reduction vs wt on dsAU

B4: hStau1 aa 182-577 (N-terminal deletion removing dsRBD2) (domain or fragment, human, UniProt O95793 182-577, looked up)
chain: NKSEISQVFEIALKRNLPVNFEVARESGPPHMKNFVTKVSVGEFVGEGEGKSKKISKKNAAIAVLEELKKLPPLPAVERVKPRIKKKTKPIVKPQTSPEYGQGINPISRLAQIQQAKKEKEPEYTLLTERGLPRRREFVMQVKVGNHTAEGTGTNKKVAKRNAAENMLEILGFKVPQAQPTKPALKSEEKTPIKKPGDGRKVTFFEPGSGDENGTSNKEDEFRMPYLSHQQLPAGILPMVPEVAQAVGVSQGHHTKDFTRAAPNPAKATVTAMIARELLYGGTSPTAETILKNNISSGHVPHGPLTRPSEQLDYLSRVQGFQVEYKDFPKNNKNEFVSLINCSSQPPLISHGIGKDVESCHDMAALNILKLLSELDQQSTEMPRTGNGPMSVCGRC
notes: human Staufen1 (hStau1), GenBank AAD17531.1, aa 182-577 (dsRBD3, dsRBD4, TBD, SSM, dsRBD5); GST was kept or cleaved; also called hStau1^182-577
- stoichiometry N [1]: 2

B5: ARF1 SBS (dsRNA)
RNA 1: UGAGUGCCAGAAGCUGCCUC
RNA 2: GAGGCAGUUUCUGGUACUCA
- Kd [7]: 10 ± 2 nM
- Kd (hStau1 FL [4]; label: 5'-6-FAM on sense strand, blunt, two G-U wobbles): 6 ± 1 nM
- Kd (hStau1 dsRBD3-4): 14 ± 4 nM
- Kd (GST-hStau1 dsRBD3-4): 9 ± 2 nM
- Kd [8]: 9 ± 3 nM
- binding signal [9]: ~8 fold reduction vs wt
- binding signal [10]: ~4.5 fold reduction vs wt
- binding signal ([6]; label: 5'-6-FAM on sense strand, two G-U wobbles): ~3 fold reduction vs wt
- binding signal [11]: ~3 fold reduction vs wt
- binding signal [12]: ~8 fold reduction vs wt
- binding result [13]: binds
- binding signal (GST-hStau1 dsRBD4): ~1000 fold reduction vs tandem dsRBD3-4
- binding signal (GST-hStau1 dsRBD3): ~10 fold reduction vs tandem dsRBD3-4

Reference: publication PMC6238398, “The crystal structure of Staufen1 in complex with a physiological RNA sheds light on substrate selectivity” (Life Science Alliance, 2018)
